Four substances from PMC6436938 can be followed below.

The target of test [1] is Impβ labeled with fluorescent Alexa 488 dye (human) (UniProt Q14974). The experiment in a line: native gel or EMSA.
Test [2] addresses Impβ6M labeled with fluorescent Alexa 488 dye (human) (UniProt Q14974). The experiment in a line: native gel or EMSA.

Chain of Impβ labeled with fluorescent Alexa 488 dye (human) (Q14974 whole entry): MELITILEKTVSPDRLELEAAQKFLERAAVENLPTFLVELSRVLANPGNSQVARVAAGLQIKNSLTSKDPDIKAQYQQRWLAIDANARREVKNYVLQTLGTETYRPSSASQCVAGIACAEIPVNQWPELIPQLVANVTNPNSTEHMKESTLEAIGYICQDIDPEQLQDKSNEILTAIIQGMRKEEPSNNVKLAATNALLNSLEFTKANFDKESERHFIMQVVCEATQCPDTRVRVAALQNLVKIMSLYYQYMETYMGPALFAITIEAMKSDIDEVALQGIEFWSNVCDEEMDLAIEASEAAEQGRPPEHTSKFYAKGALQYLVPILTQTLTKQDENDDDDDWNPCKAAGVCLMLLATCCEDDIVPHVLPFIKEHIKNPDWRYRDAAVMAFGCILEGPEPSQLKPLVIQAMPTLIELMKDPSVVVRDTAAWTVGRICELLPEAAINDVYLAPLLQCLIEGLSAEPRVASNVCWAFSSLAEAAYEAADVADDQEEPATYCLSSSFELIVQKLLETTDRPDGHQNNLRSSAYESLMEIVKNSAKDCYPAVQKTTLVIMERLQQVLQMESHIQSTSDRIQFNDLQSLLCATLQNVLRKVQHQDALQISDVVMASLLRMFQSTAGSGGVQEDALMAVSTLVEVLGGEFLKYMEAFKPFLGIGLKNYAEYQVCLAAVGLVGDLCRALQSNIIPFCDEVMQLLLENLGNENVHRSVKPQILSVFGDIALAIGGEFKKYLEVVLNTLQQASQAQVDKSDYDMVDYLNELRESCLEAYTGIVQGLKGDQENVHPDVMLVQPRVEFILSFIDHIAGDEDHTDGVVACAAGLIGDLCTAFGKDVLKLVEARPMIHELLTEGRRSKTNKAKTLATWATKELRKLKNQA
Chain of Impβ6M labeled with fluorescent Alexa 488 dye (human) (Q14974 whole entry L174S/T175A/I178D/E214A/F217A/I218D): as the sequence (Q14974 whole entry) above, with L174S, T175A, I178D, E214A, F217A, I218D counted along it

In turn, “Imp7 F1028S and F1030S (natural protein)” showed a dissociation constant Kd in test [1] of 2890 nM.

In the case of “Impα F527S/F529S (from UniProt P52292 1-529) (natural protein)”, the Kd in test [1] is 920 nM.

“importin α (Impα, Kapα) (from UniProt P52292 1-529) (natural protein)”: the Kd in test [1] is 620 nM; in test [2], 3340 nM.

In test [1], Imp7 F1019S (natural protein) returned a Kd of 1220 nM.
